Laboratory results reported in patent publication US6558913.

Target: factor Xa-activated factor V(Q506) (UniProt P12259)
Sequence of UniProt P12259 (P12259 29-737 R534Q, chain 1 of 2): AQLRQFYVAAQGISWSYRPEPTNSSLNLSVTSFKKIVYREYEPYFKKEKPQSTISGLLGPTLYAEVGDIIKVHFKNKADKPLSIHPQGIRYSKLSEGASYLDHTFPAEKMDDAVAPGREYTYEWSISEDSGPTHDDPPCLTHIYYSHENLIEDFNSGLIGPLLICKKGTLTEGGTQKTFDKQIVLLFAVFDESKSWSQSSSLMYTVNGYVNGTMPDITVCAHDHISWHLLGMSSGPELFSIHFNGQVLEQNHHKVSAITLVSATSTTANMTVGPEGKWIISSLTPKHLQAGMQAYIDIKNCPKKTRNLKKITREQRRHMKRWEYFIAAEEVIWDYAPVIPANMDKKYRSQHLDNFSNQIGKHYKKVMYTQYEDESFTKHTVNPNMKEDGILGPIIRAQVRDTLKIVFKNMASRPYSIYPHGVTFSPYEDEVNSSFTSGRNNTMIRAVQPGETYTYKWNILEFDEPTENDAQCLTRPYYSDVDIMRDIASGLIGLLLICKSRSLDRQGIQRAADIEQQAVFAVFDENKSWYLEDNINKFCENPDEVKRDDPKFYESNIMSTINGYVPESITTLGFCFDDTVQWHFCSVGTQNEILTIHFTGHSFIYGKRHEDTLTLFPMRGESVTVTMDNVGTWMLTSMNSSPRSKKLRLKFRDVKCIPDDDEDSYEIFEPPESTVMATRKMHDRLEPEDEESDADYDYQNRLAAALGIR
Sequence of UniProt P12259 (P12259 1047-2224, chain 2 of 2): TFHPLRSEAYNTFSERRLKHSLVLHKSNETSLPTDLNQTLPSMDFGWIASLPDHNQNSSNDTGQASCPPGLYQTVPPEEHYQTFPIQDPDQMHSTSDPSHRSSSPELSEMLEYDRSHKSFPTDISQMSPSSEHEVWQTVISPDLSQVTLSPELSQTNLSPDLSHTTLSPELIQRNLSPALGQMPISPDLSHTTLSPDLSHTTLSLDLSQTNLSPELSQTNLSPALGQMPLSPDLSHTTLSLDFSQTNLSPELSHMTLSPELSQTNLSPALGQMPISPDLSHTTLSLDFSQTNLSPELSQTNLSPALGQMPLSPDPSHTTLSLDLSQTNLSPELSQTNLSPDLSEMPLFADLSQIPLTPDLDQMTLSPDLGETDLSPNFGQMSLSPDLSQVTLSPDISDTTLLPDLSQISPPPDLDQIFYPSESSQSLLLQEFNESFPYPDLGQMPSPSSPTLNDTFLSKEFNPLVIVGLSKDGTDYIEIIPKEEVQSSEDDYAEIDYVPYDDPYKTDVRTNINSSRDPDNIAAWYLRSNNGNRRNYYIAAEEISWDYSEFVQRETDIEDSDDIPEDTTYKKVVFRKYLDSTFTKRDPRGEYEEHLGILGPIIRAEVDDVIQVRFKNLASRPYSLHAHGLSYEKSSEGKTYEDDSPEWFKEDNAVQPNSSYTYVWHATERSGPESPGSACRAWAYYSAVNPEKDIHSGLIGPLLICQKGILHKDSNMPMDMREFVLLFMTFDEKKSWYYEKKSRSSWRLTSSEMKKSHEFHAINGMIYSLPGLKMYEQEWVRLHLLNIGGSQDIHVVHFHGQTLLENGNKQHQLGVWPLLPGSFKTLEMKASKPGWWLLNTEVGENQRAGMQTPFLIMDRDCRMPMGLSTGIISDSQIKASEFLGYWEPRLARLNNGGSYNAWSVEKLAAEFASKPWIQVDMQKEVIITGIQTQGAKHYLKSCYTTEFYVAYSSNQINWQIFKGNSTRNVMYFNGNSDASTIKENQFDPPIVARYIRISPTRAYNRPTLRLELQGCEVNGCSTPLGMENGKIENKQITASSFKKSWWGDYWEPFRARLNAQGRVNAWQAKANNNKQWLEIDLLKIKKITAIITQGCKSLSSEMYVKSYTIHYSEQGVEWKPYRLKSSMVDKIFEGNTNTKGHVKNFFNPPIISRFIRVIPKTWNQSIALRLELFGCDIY

Substance: activated protein C
- factor Va activity over time after addition of APC (inactivation by APC): the replacement of Arg-506 by Gln only prevents the inactivation of the Xa-activated form of factor V by APC (FIG. 8)
